Results taken from patent US20260242458A1 (NOVAROCK BIOTHERAPEUTICS, published 2026).

T1: recombinant human IL-25 protein (human, UniProt Q9H293 33-177)
T1 construct: Bought (Acro, catalog no: IL5-H4221) for ELISA; also called hIL-25; IL-17E
T1 sequence: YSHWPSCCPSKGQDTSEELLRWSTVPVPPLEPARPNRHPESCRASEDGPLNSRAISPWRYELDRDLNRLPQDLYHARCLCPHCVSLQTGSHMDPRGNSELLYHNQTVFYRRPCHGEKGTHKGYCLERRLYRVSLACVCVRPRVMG

T2: recombinant mouse IL-25 protein (mouse, UniProt Q8VHH8 17-169)
T2 construct: Bought (Sino Biological Inc, catalog no: 50138-M07H)
T2 sequence: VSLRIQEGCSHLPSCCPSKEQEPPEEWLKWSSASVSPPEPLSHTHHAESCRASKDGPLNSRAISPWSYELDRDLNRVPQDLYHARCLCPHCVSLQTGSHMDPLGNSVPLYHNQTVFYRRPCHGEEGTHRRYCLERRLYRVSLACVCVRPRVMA

T3: recombinant cynomolgus IL-25 protein (cynomolgus monkey, UniProt Q9H293 33-177 (human entry), limits assumed)
T3 construct: Bought (Sino Biological Inc, customized order); also called cyno IL-25
T3 chain: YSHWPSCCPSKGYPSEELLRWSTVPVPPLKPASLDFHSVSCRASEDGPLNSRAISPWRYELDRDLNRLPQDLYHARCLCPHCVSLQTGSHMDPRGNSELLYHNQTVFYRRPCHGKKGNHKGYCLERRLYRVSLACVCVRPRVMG


What was measured:
[1] = target: T1, recombinant human IL-25 protein; assay: BLI, Fab; species of IL-25 not stated, taken as human
[2] = target: T1, recombinant human IL-25 protein; assay: cell-based or functional assay
[3] = target: T2, recombinant mouse IL-25 protein; assay: ELISA, IL-25 coated, goat anti-human kappa light chain-HRP detection
Protocol: (§1) In this study, the ability of three humanized anti-IL-25 antibodies generated in hIgG1 (IL25Ab6 to Ab8) and hIgG1 YTE formats (IL25Ab9 to Ab11) binding to both human, mouse and cynomolgus IL-25 was evaluated using ELISA. Briefly, recombinant human IL-25 protein (Acro, catalog no: IL5-H4221, lot no: 401-20CNF1-UT), recombinant mouse IL-25 protein (Sino Biological Inc, catalog no: 50138-M07H, lot no: LC15AP0607) or recombinant cynomolgus IL-25 protein (Sino Biological Inc, catalog no: customized order, lot no: MB17MA2715) was directly coated to ELISA plates, respectively. Recombinant antibodies were then added to the plates followed by detection using goat-anti-human Kappa Light Chain antibody HRP (Novus, catalog no: NBP1-75064, Lot no: 68-188-010920). After the addition of ABTS (Moss Inc., catalog no: ABTS-1000, Lot no: 03086202) substrate, ELISA plates were read using an ELISA plate reader (Bioteck).

[4] = target: T1, recombinant human IL-25 protein; assay: as above
Protocol: as §1

[5] = target: T3, recombinant cynomolgus IL-25 protein; assay: as above
Protocol: as §1

[6] = target: T1, recombinant human IL-25 protein; assay: cell-based or functional assay; remark: listed apart in the source
[7] = target: T1, recombinant human IL-25 protein; assay: cell-based or functional assay; remark: listed apart in the source

Binder | Kd [1] | koff [1] | kon [1] | IC50, IL-25 induced CXCL1 production in HT-29 cells [2] | EC50 [3] | EC50 [4] | EC50 [5] | IC50, IL-25 induced NF-kB signaling (SEAP) in HEK-Blue IL-17 reporter cells [6] | IC50, IL-25 induced IL-5 production in human PBMC [7]
IL25Ab3 Fab (Fab, V domains shown, VH/VL assigned as for IL25Ab3; also called murine parental Fab) VH: EVQLQQSGPELVKPGGSVRISCKASGYSFTGYTMNWVKQSHGKNLEWIGLINPDNGGTSHKQRFMGKATLTVDKSSSTAYMELLSLTSEDSAVYYCAREGYYGPSPFHHYAMDYWGQGTSVTVSS VL: DIQMTQTTSSLSASLGDRVTISCSASQDISNYLNWYQQKPDGTIKLLIYYTSTLHSGVPSRFSGSGSGTDYSLTISNLEPEDIATYYCQQYSKLPYTFGGGTKLEIK | 1.89 nM | 0.000285 s⁻¹ | 150000 M⁻¹ s⁻¹ | – | – | – | – | – | –
IL25Ab7 (antibody, IgG1, V domains shown) VH: QVQLVQSGAEVKKPGASVKVSCKASGYSFTGYTMNWVRQAPGQGLEWMGLINPDNGGTSYKQKFQGRVTMTVDKSISTAYMELSRLRSDDTAVYYCAREGYYGPSPFHHYAMDYWGQGTLVTVSS VL: DIQMTQSPSSLSASVGDRVTITCQASQDISNYLNWYQQKPDGTIKLLIYYTSTLHTGVPSRFSGSGSGTDYTFTISSLQPEDIATYYCQQYSKLPYTFGQGTKLEIK | – | – | – | 0.183 nM | 0.243 nM | 0.327 nM | 0.245 nM | 0.042 nM | 0.85 nM
IL25Ab10 (antibody, V domains shown) VH: QVQLVQSGAEVKKPGASVKVSCKASGYSFTGYTMNWVRQAPGQGLEWMGLINPDNGGTSYKQKFQGRVTMTVDKSISTAYMELSRLRSDDTAVYYCAREGYYGPSPFHHYAMDYWGQGTLVTVSS VL: DIQMTQSPSSLSASVGDRVTITCQASQDISNYLNWYQQKPDGTIKLLIYYTSTLHTGVPSRFSGSGSGTDYTFTISSLQPEDIATYYCQQYSKLPYTFGQGTKLEIK | – | – | – | 0.198 nM | 0.284 nM | 0.364 nM | 0.266 nM | 0.052 nM | 1.43 nM
IL25Ab7 Fab (Fab, V domains shown, VH/VL assigned as for IL25Ab7) VH: QVQLVQSGAEVKKPGASVKVSCKASGYSFTGYTMNWVRQAPGQGLEWMGLINPDNGGTSYKQKFQGRVTMTVDKSISTAYMELSRLRSDDTAVYYCAREGYYGPSPFHHYAMDYWGQGTLVTVSS VL: DIQMTQSPSSLSASVGDRVTITCQASQDISNYLNWYQQKPDGTIKLLIYYTSTLHTGVPSRFSGSGSGTDYTFTISSLQPEDIATYYCQQYSKLPYTFGQGTKLEIK | 1.8 nM | 0.00029 s⁻¹ | 161000 M⁻¹ s⁻¹ | – | – | – | – | – | –
IL25Ab8 (antibody, IgG1, V domains shown) VH: QVQLVQSGAEVKKPGASVKVSCKASGYSFTGYTMNWVRQAHGKNLEWMGLINPDNGGTSHKQKFQGRVTMTVDKSISTAYMELSRLRSDDTAVYYCAREGYYGPSPFHHYAMDYWGQGTLVTVSS VL: DIQMTQSPSSLSASVGDRVTITCQASQDISNYLNWYQQKPDGTIKLLIYYTSTLHTGVPSRFSGSGSGTDYTLTISSLQPEDIATYYCQQYSKLPYTFGGGTKLEIK | – | – | – | 0.199 nM | 0.332 nM | 0.404 nM | 0.295 nM | 0.041 nM | 1.04 nM
IL25Ab6 (antibody, V domains shown) VH: QVQLVQSGAEVKKPGASVKVSCKASGYSFTGYTMNWVRQAPGQGLEWMGLINPDNGGTSYKQKFQGRVTMTVDKSISTAYMELSRLRSDDTAVYYCAREGYYGPSPFHHYAMDYWGQGTLVTVSS VL: DIQMTQSPSSLSASVGDRVTITCQASQDISNYLNWYQQKPGKAPKLLIYYTSTLHTGVPSRFSGSGSGTDYTFTISSLQPEDIATYYCQQYSKLPYTFGQGTKLEIK | – | – | – | 0.225 nM | 0.242 nM | 0.302 nM | 0.241 nM | 0.048 nM | 0.381 nM
IL25Ab6 Fab (Fab, V domains shown) VH: QVQLVQSGAEVKKPGASVKVSCKASGYSFTGYTMNWVRQAPGQGLEWMGLINPDNGGTSYKQKFQGRVTMTVDKSISTAYMELSRLRSDDTAVYYCAREGYYGPSPFHHYAMDYWGQGTLVTVSS VL: DIQMTQSPSSLSASVGDRVTITCQASQDISNYLNWYQQKPGKAPKLLIYYTSTLHTGVPSRFSGSGSGTDYTFTISSLQPEDIATYYCQQYSKLPYTFGQGTKLEIK | 1.86 nM | 0.000249 s⁻¹ | 134000 M⁻¹ s⁻¹ | – | – | – | – | – | –
IL25Ab8 Fab (Fab, V domains shown, VH/VL assigned as for IL25Ab8) VH: QVQLVQSGAEVKKPGASVKVSCKASGYSFTGYTMNWVRQAHGKNLEWMGLINPDNGGTSHKQKFQGRVTMTVDKSISTAYMELSRLRSDDTAVYYCAREGYYGPSPFHHYAMDYWGQGTLVTVSS VL: DIQMTQSPSSLSASVGDRVTITCQASQDISNYLNWYQQKPDGTIKLLIYYTSTLHTGVPSRFSGSGSGTDYTLTISSLQPEDIATYYCQQYSKLPYTFGGGTKLEIK | 1.78 nM | 0.000251 s⁻¹ | 141000 M⁻¹ s⁻¹ | – | – | – | – | – | –
IL25Ab11 (antibody, IgG1, V domains shown) VH: QVQLVQSGAEVKKPGASVKVSCKASGYSFTGYTMNWVRQAHGKNLEWMGLINPDNGGTSHKQKFQGRVTMTVDKSISTAYMELSRLRSDDTAVYYCAREGYYGPSPFHHYAMDYWGQGTLVTVSS VL: DIQMTQSPSSLSASVGDRVTITCQASQDISNYLNWYQQKPDGTIKLLIYYTSTLHTGVPSRFSGSGSGTDYTLTISSLQPEDIATYYCQQYSKLPYTFGGGTKLEIK | – | – | – | 0.187 nM | 0.258 nM | 0.318 nM | 0.239 nM | 0.037 nM | 0.953 nM
IL25Ab9 (antibody, V domains shown) VH: QVQLVQSGAEVKKPGASVKVSCKASGYSFTGYTMNWVRQAPGQGLEWMGLINPDNGGTSYKQKFQGRVTMTVDKSISTAYMELSRLRSDDTAVYYCAREGYYGPSPFHHYAMDYWGQGTLVTVSS VL: DIQMTQSPSSLSASVGDRVTITCQASQDISNYLNWYQQKPGKAPKLLIYYTSTLHTGVPSRFSGSGSGTDYTFTISSLQPEDIATYYCQQYSKLPYTFGQGTKLEIK | – | – | – | 0.225 nM | 0.232 nM | 0.312 nM | 0.222 nM | 0.043 nM | 0.435 nM
